Experimental data: patent publication US6670189B2, “Fumonisin detoxification compositions and methods” (priority 1994, dated 2003)

B1: Protease K: protease used to treat the culture filtrate (protein, UniProt P06873 106-384, looked up)
Proteinase K: AAQTNAPWGLARISSTSPGTSTYYYDESAGQGSCVYVIDTGIEASHPEFEGRAQMVKTYYYSSRDGNGHGTHCAGTVGSRTYGVAKKTQLFGVKVLDDNGSGQYSTIIAGMDFVASDKNNRNCPKGVVASLSLGGGYSSSVNSAAARLQSSGVMVAVAAGNNNADARNYSPASEPSVCTVGASDRYDRRSSFSNYGSVLDIFGPGTSILSTWIGGSTRSISGTSMATPHVAGLAAYLMTLGKTTAASACRYIADTANKGDLSNIPFGTVNLLAYNNYQA
B2: Fumonisin esterase (protein)
chain: APTVKIDAGMVVGTTTTVPGTTATVSEFLGVPFAASPTRFAPPTRPVPWSTPLQATAYGPACPQQFNYPEELREITMAWFNTPPPSAGESEDCLNLNIYVPGTENTNKAVMVWIYGGALEYGWNSFHLYDGASFAANQDVIVVTINYRTNILGFPAAPQLPITQRNLGFLDQRFALDWVQRNIAAFGGDPRKVTIFGQSAGGRSVDVLLTSMPHNPPFRAAIMESGVANYNFPKGDLSEPWNTTVQALNCTTSIDILSCMRRVDLATLMNTIEQLGLGFEYTLDNVTVVYRSETARTTGDIARVPVLVGTVANDGLLFVLGENDTQAYLEEAIPNQPDLYQTLLGAYPIGSPGIGSPQDQIAAIETEVRFQCPSAIVAQDSRNRGIPSWRYYYNATFENLELFPGSEVYHSSEVGMVFGTYPVASATALEAQTSKYMQGAWAAFAKNPMNGPGWKQVPNVAALGSPGKAIQVDVSPATIDQRCALYTHYYTELGTIAPRTF

What was measured:
FB1 Hydrolase activity = assay: Effect of various treatments on modification of FB1 by E. spinifera esterase (culture filtrates); format: biochemical, Exophiala spinifera; set-up: key: − = no hydrolysis; ± = trace amount of hydrolysis; + = incomplete hydrolysis; ++ = incomplete hydrolysis; +++ = complete hydrolysis; details: treatment 0.01 mg/ml, 16 hr, 37° C., pH 5.2; then incubated with FB1 overnight at 37° C.
Description: (§1) Analytical thin-layer chromatography was carried out on 100% silanized C18 silica plates (Sigma #T-7020; 10×10 cm; 0.1 mm thick) by a modification of the published method of Rottinghaus (Rottinghaus, G. E., Coatney, C. E., and Minor, H. C., A rapid, sensitive thin layer chromatography procedure for the detection of fumonisin b-1 and b-2, J Vet Diagn Invest, 4, 326 (1992), and herein incorporated by reference).
(§2) Sample lanes were pre-wet with methanol to facilitate sample application. After application of from 0.1 to 2 μl of aqueous sample, the plates were air-dried and developed in MeOH:4% KCl (3:2) or MeOH:0.2 M KOH (3:2) and then sprayed successively with 0.1 M sodium borate (pH 9.5) and fluorescamine (0.4 mg/ml in acetonitrile). Plates were air-dried and viewed under long wave UV.
The esterase isolated from E. spinifera was then subjected to other treatments, including proteases, to determine whether and how the enzyme would function in various environments.

[1] = Hydrolysis of fumonisin B1 by commercial esterases and hydrolases; format: biochemical; set-up: key: − = no hydrolysis; ± = trace amount of hydrolysis; + = incomplete hydrolysis; ++ = incomplete hydrolysis; +++ = complete hydrolysis; details: assay pH 5.2; overnight at 37° C. with 1 mg/ml fumonisin
Description: as §1, §2
The fumonisin esterase isolated from E. spinifera and R. atrovirens was compared with other known esterases from various sources as supplied by commercial vendors.

| Molecule | FB1 Hydrolase activity (FB1 Hydrolase activity) | FB1 hydrolysis [1] |
| --- | --- | --- |
| B1 | + | – |
| B2 | – | +++ |
